The record followed here is patent US8916684B2, “Bioengineered protein pores” (Syracuse University, priority 2010, dated 2014).

A short description of this assay: Single-channel electrical recordings of protein pores in planar lipid bilayers. Type of assay: biochemical. Conditions: +40 mV.
Where [1] appears, read: 1 M KCl, 10 mM potassium phosphate, pH 7.4.

B1: WT-FhuA: wild-type E. coli ferric hydroxamate uptake component A, 714-residue β-barrel outer membrane protein (protein, UniProt P06971 34-747, looked up)
Ferrichrome outer membrane …: AVEPKEDTITVTAAPAPQESAWGPAATIAARQSATGTKTDTPIQKVPQSISVVTAEEMALHQPKSVKEALSYTPGVSVGTRGASNTYDHLIIRGFAAEGQSQNNYLNGLKLQGNFYNDAVIDPYMLERAEIMRGPVSVLYGKSSPGGLLNMVSKRPTTEPLKEVQFKAGTDSLFQTGFDFSDSLDDDGVYSYRLTGLARSANAQQKGSEEQRYAIAPAFTWRPDDKTNFTFLSYFQNEPETGYYGWLPKEGTVEPLPNGKRLPTDFNEGAKNNTYSRNEKMVGYSFDHEFNDTFTVRQNLRFAENKTSQNSVYGYGVCSDPANAYSKQCAALAPADKGHYLARKYVVDDEKLQNFSVDTQLQSKFATGDIDHTLLTGVDFMRMRNDINAWFGYDDSVPLLNLYNPVNTDFDFNAKDPANSGPYRILNKQKQTGVYVQDQAQWDKVLVTLGGRYDWADQESLNRVAGTTDKRDDKQFTWRGGVNYLFDNGVTPYFSYSESFEPSSQVGKDGNIFAPSKGKQYEVGVKYVPEDRPIVVTGAVYNLTKTNNLMADPEGSFFSVEGGEIRARGVEIEAKAALSASVNVVGSYTYTDAEYTTDTTYKGNTPAQVPKHMASLWADYTFFDGPLSGLTLGTGGRYTGSSYGDPANSFKVGSYTVVDALVRYDLARVGMAGSNVALHVNNLFDREYVASCFNTYGCFWGAERQVVATATFRF
In the case of B1, the “all-points histogram current amplitude peak” value was about 12.5 pA. Under setting [1], the Conductance is reported as 0.3 ± 0.2 nS and the single-channel conductance stood at 0.3±0.2 nS.
